Results published in the RNAGym collection of RNA variant scans (doi:10.1093/nar/gkz1192).

B1: CPEB3 Ribozyme (parent)
chain: UAACAGGGGGCCACAGCAGAAGCGUUCACGUCGCAGCCCCUGUCAGAUUCUGGUGAAUCUGCGAAUUCUGCUGUAUAUCUC

Variants of: B1
Experiment: self-cleavage, relative activity (ratio to wild type); higher = more cleavage; in vitro, sequencing
How it was run: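 For each CPEB3 ribozyme variant, relative activity is its cleaved/total read fraction divided by the unmutated ribozyme's. Barcoded error-prone PCR libraries were transcribed by T7 RNA polymerase (5 hours, 37°C) and held in DNase I for 15 min before an EDTA stop, with cleavage occurring throughout. Template-switching reverse transcription and Illumina sequencing were used to read the RNAs. A 5-read minimum applied, and results are the mean of three batches.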

Going from UAACAGGGGGCCACAGCAGAAGCGUUCACGUCACAGCCCCUGUCAGAUUCUGGUGAAUCUGCGAAUACUGCUGUAUAUCUC [G33A U67A] to UAACAGGGGGCCACAGCAGAAGCGUUCACGUCACAGCCCCUGUCAGAUUCUGGUGAAUCUGCGAAUCCUGCUGUAUAUCUC [G33A U67C], the self-cleavage rises from 0.15 to 0.22.

First: UAACAGGGGGCCACAGCAGAAGCGUUCACGUCACAGCCCCUGUCAGAUUCUGGUGAAUCUACGAAUUCUGCUGUAUAUCUC [G33A G61A]
Second: UAACAGGGGGCCACAGCAGAAGCGUUCACGUCACAGCCCCUGUCAGAUUCAGGUGAAUCUGCGAAUUCUGCUGUAUAUCUC [G33A U51A]
The self-cleavage of the first is lower: 0.14 for the first, 0.26 for the second.

Going from UAACAGGGGGCCACAGCAGAAGCGUUCACGUCACAGCCCCUGUCAGAUUCCGGUGAAUCUGCGAAUUCUGCUGUAUAUCUC [G33A U51C] to UAACAGGGGGCCACAGCAGAAGCGUUCACGUCACAGCCCCUGUCAGAUUCGGGUGAAUCUGCGAAUUCUGCUGUAUAUCUC [G33A U51G], the self-cleavage falls from 0.37 to 0.19.

Compared with UAACAGGGGGCCACAGCAGAAGCGUUCACGUCACAGCCCCUGUCAGAUUCUGGUGAACCUGCGAAUUCUGCUGUAUAUCUC [G33A U58C], UAACAGGGGGCCACAGCAGAAGCGUUCACGUCACAGCCCCUGUCAGAUUCUGGUGAAUCUGCGAAAUCUGCUGUAUAUCUC [G33A U66A] is higher in self-cleavage: 0.08 for the first, 0.18 for the second.

Compared with UAACAGGGGGCCACAGCAGAAGCGUUCACGUCACAGCCCCUGUCAGAUUCUGGUGAAUCUGCGAACUCUGCUGUAUAUCUC [G33A U66C], UAACAGGGGGCCACAGCAGAAGCGUUCACGUCACAGCCCCUGUCAGAUUCUGGUGAAUCUGCGAAUUCCGCUGUAUAUCUC [G33A U69C] is lower in self-cleavage: 0.31 for the first, 0.27 for the second.

Going from UAACAGGGGGCCACAGCAGAAGCGUUCACGUCACAGCCCCUGUCAGAUUCUGGUGAAUCUGCGAAUUCGGCUGUAUAUCUC [G33A U69G] to UAACAGGGGGCCACAGCAGAAGCGUUCACGUCACAGCCCCUGUCAGAUUCUGGUGAAUCUGCAAAUUCUGCUGUAUAUCUC [G33A G63A], the self-cleavage falls from 0.16 to 0.14.

Going from UAACAGGGGGCCACAGCAGAAGCGUUCACGUCACAGCCCCUGUCAGAUUCUGGUGAAUCUGCUAAUUCUGCUGUAUAUCUC [G33A G63U] to UAACAGGGGGCCACAGCAGAAGCGUUCACGUCACAGCCCCUGUCAGAGUCUGGUGAAUCUGCGAAUUCUGCUGUAUAUCUC [G33A U48G], the self-cleavage rises from 0.1 to 0.18.

Going from UAACAGGGGGCCACAGCAGAAGCGUUCACGUCACAGCCCCUGUCAGACUCUGGUGAAUCUGCGAAUUCUGCUGUAUAUCUC [G33A U48C] to UAACAGGGGGCCACAGCAGAAGCGUUCACGUCACAGCCCCUGUCAGAUUCUGGUGAAUCUGCGAAUUCUUCUGUAUAUCUC [G33A G70U], the self-cleavage rises from 0.26 to 0.71.

Compared with UAACAGGGGGCCACAGCAGAAGCGUUCACGUCACAGCCCCUGUCAGAUUCUGGUGAAUCUGCGAAUUCUCCUGUAUAUCUC [G33A G70C], UAACAGGGGGCCACAGCAGAAGCGUUCACGUCACAGCCCCUGUCAGAUACUGGUGAAUCUGCGAAUUCUGCUGUAUAUCUC [G33A U49A] is higher in self-cleavage: 0.26 for the first, 0.29 for the second.

Going from UAACAGGGGGCCACAGCAGAAGCGUUCACGUCACAGCCCCUGUCAGAUCCUGGUGAAUCUGCGAAUUCUGCUGUAUAUCUC [G33A U49C] to UAACAGGGGGCCACAGCAGAAGCGUUCACGUCACAGCCCCUGUCAGAUUCUGGUGAAUCUGCGAAUUCUGCUAUAUAUCUC [G33A G73A], the self-cleavage rises from 0.28 to 0.51.

First: UAACAGGGGGCCACAGCAGAAGCGUUCACGUCACAGCCCCUGUCAGAUUCUGGUGAAUCUGCGAAUUCUGCAGUAUAUCUC [G33A U72A]
Second: UAACAGGGGGCCACAGCAGAAGCGUUCACGUCACAGCCCCUGACAGAUUCUGGUGAAUCUGCGAAUUCUGCUGUAUAUCUC [G33A U43A]
The self-cleavage of the first is lower: 0.23 for the first, 0.32 for the second.

First: UAACAGGGGGCCACAGCAGAAGCGUUCACGUCACAGCCCCUGCCAGAUUCUGGUGAAUCUGCGAAUUCUGCUGUAUAUCUC [G33A U43C]
Second: UAACAGGGGGCCACAGCAGAAGCGUUCACGUCACAGCCCCUGGCAGAUUCUGGUGAAUCUGCGAAUUCUGCUGUAUAUCUC [G33A U43G]
The self-cleavage of the first is lower: 0.29 for the first, 0.34 for the second.

Going from UAACAGGGGGCCACAGCAGAAGCGUUCACGUCACAACCCCUGUCAGAUUCUGGUGAAUCUGCGAAUUCUGCUGUAUAUCUC [G33A G36A] to UAACAGGGGGCCACAGCAGAAGCGUUCACGUCACAGCCCCUUUCAGAUUCUGGUGAAUCUGCGAAUUCUGCUGUAUAUCUC [G33A G42U], the self-cleavage rises from 0.07 to 0.39.

Going from UAACAGGGGGCCACAGCAGAAGCGUUCACGUCACAGCCCCUGUCAGAUUCUGGAGAAUCUGCGAAUUCUGCUGUAUAUCUC [G33A U54A] to UAACAGGGGGCCACAGCAGAAGCGUUCACGUCACAGCCCCUGUCAGAUUCUGGCGAAUCUGCGAAUUCUGCUGUAUAUCUC [G33A U54C], the self-cleavage falls from 0.18 to 0.15.

First: UAACAGGGGGCCACAGCAGAAGCGUUCACGUCACAGCCCCUGUCAGAUUCUGGUGAAUCCGCGAAUUCUGCUGUAUAUCUC [G33A U60C]
Second: UAACAGGGGGCCACAGCAGAAGCGUUCACGUCACAGCCCCUGUCAGAUUCUGGUGAAUCAGCGAAUUCUGCUGUAUAUCUC [G33A U60A]
The self-cleavage of the first is higher: 0.24 for the first, 0.15 for the second.

Compared with UAACAGGGGGCCACAGCAGAAGCGUUCACGUCACAGCCCCUGUCAGAUUCUAGUGAAUCUGCGAAUUCUGCUGUAUAUCUC [G33A G52A], UAACAGGGGGCCACAGCAGAAGCGUUCACGUCACAGCCCCUGUCAGAUUCUCGUGAAUCUGCGAAUUCUGCUGUAUAUCUC [G33A G52C] is lower in self-cleavage: 0.3 for the first, 0.12 for the second.

Compared with UAACAGGGGGCCACAGCAGAAGCGUUCACGUCACAGCCCCCGUCAGAUUCUGGUGAAUCUGCGAAUUCUGCUGUAUAUCUC [G33A U41C], UAACAGGGGGCCACAGCAGAAGCGUUCACGUCACAGCCCCAGUCAGAUUCUGGUGAAUCUGCGAAUUCUGCUGUAUAUCUC [G33A U41A] is higher in self-cleavage: 0.39 for the first, 0.41 for the second.
